Experimental data as given in article PMC2912355 (Molecular Biology of the Cell, 2010).

B1: IFT70/CrDYF-1 (natural protein, C. reinhardtii (endogenous in flagella), UniProt A8ITN7 1-647, looked up)
chain: MAFFQQPARPIAEGQYTQTIYTLIKEQKFAEAIQHLQYQLQNVPESRAALSLLGYCYYYTGQYDMASQMYEQLVTLYPSNEDYKLYYAQSLYKGGMYPEASKAVVKVEGHQKAVTTLLVACSYEQDDLTGCRRQLDKCAPEDPDTMVNTGCIMFKEGKFEAARQKFNDAVQALGYQPELLYNIALCYYKTKQFGPALKHLAEIIEKAVREHPELSVGSNTDGMEVRSVGNSQTLKETALIEAFNLKAAIEYTMKNVEAAKEALTDMPPRAEEELDPVTLHNSALINMDSDPTGGFKKLNFLLQSPPFPPETFANLLLLYCKPSHGFYDLAADVLAENPQYAGKLLSPDLYDYLQAAIGRYKSPEEAFRRFDELATRHVEQLRRLTKQIQDARIARDNDAIKRAINEYDEALEAYIPGLMAMASIYWDMELYSNVEKIFRQSAEFCSEHEVWKLNVAHTFFMQDNHYKEAIRYYEPVVKKNADNLLGVTAIVLANLCVSYIMTSQNEEAEELMRKVEKEEERSSMQDPDKPCFHLCIINLVIGTLYCAKGNYEFGVSRIIKSLEPYDKKLETDTWYYAKRCFLALIENLAKHMIVLKDSSFTEIMAFLNEAEKHGKDIRVVFNEGKHQSRTIASEARMLKKMFLKLRD

What was measured:
[1] = biological target: Strep-II-Tag IFT46 (C. reinhardtii) (UniProt A2T2X4); experiment: pull-down
Strep-II-Tag IFT46 (C. reinhardtii), sequence (A2T2X4 whole entry): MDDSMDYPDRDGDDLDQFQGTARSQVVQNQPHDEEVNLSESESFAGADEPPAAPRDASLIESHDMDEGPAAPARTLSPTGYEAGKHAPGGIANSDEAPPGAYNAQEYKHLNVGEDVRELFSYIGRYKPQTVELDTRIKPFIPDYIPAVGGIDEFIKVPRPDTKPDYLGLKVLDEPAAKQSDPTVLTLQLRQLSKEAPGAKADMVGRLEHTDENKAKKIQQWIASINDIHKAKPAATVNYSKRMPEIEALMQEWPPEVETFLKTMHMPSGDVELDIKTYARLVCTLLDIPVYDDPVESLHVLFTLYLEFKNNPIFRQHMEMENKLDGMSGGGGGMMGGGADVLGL

IFT57 = biological target: T1, IFT57 (C. reinhardtii (endogenous in flagella), UniProt Q2XQY7 1-469); experiment: co-sedimentation
T1 sequence (looked up): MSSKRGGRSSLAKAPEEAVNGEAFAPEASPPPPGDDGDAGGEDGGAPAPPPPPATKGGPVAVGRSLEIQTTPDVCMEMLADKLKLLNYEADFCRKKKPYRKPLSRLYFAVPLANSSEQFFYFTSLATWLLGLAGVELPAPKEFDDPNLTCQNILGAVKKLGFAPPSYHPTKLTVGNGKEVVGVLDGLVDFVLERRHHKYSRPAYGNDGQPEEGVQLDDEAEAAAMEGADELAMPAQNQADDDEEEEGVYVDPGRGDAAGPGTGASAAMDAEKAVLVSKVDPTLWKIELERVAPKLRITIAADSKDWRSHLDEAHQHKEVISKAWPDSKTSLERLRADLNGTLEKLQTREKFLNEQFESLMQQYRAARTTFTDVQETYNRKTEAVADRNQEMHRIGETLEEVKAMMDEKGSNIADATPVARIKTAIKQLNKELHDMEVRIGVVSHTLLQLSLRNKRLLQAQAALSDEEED

IFT72 = biological target: T2, IFT72 (C. reinhardtii (endogenous in flagella), UniProt Q6RCE1 1-641); experiment: co-sedimentation
T2 sequence (looked up): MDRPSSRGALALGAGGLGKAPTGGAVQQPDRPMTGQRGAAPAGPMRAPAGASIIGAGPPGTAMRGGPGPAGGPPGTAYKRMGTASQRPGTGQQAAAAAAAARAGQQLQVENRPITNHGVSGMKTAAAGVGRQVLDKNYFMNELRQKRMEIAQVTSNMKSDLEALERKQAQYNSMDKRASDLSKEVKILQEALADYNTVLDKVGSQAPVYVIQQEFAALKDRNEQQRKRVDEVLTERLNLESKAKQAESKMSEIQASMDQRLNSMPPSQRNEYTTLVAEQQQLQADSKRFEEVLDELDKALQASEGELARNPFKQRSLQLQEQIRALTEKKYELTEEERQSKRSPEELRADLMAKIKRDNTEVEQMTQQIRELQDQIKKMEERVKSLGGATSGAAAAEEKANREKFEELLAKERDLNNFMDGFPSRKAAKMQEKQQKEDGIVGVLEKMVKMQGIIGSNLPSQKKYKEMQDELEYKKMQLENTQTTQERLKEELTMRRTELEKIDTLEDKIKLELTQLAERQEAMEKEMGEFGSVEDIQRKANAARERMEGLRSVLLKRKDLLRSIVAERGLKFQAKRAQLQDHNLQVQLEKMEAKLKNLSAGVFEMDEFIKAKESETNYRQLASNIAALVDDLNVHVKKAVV

Molecule	stoichiometry N [1]	stoichiometry N (IFT57)	stoichiometry N (IFT72)
MBP-IFT70/CrDYF-1 (natural protein)	1		
B1		~1	~1
